Substitutions are numbered along the chain they refer to.
Assays:
protein A [1] = biological target: T1, protein A (UniProt P38507 37-327); assay: HiTrap protein A HP column, pH gradient elution; size exclusion analysis
T1 construct: Immobilised on resin; also called rProtein A Sepharose Fast Flow column (GE Healthcare); HiTrap protein A HP column (GE Healthcare)

protein A [2] = biological target: T1, protein A; assay: HiTrap protein A HP column, pH gradient elution
protein A [3] = biological target: T1, protein A; assay: rProtein A Sepharose Fast Flow column, stepwise pH elution; fractions analysed by cation exchange chromatography
protein A [4] = biological target: T1, protein A; assay: rProtein A Sepharose Fast Flow column, elution at pH 3.6; cation exchange analysis
protein A [5] = biological target: T1, protein A; assay: rProtein A Sepharose Fast Flow column, elution at pH 3.6 and 2.7; cation exchange analysis

B1: homomeric antibody NTA4L-G3 (antibody, human IgG1, kappa, L234A L235A, N297A)
heavy: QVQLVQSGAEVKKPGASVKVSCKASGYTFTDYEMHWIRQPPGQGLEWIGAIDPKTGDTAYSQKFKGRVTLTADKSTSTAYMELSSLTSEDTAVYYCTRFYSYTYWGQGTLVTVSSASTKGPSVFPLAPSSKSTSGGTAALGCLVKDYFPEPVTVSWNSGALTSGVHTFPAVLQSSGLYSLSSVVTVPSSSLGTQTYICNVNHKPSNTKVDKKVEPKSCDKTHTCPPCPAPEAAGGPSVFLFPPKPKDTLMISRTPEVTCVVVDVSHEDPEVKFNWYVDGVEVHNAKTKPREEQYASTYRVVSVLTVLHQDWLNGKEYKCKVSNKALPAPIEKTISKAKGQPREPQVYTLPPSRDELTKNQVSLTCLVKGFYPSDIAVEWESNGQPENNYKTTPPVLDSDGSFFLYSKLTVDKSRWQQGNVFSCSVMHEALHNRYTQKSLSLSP
light: DVVMTQSPLSLPVTPGEPASISCRSSQSLVHSNRNTYLHWYLQKPGQSPQLLIYKVSNRFSGVPDRFSGSGSGTDFTLKISRVEAEDVGVYYCSQNTHVPPTFGQGTKLEIKRTVAAPSVFIFPPSDEQLKSGTASVVCLLNNFYPREAKVQWKVDNALQSGNSQESVTEQDSKDSTYSLSSTLTLSKADYEKHKVYACEVTHQGLSSPVTKSFNRGEC
notes: Homomeric by-product; also called NTL4L-G3
Does B1 bind (protein A [1])?
Result: no binding

B2: homomeric antibody having the H chain of the anti-GPC3 antibody (from no6) (antibody)
heavy: DVVMTQSPLSLPVTPGEPASISCRSSQSLVHSNRNTYLHWYLEKPGQSPQLLIYKVSNRFSGVPDRFSGSGSGTDFTLKISRVEAEDVGVYYCSQNTHVPPTFGQGTKLEIKSSASTKGPSVFPLAPSSKSTSGGTAALGCLVKDYFPEPVTVSWNSGALTSGVHTFPAVLQSSGLYSLSSVVTVPSSSLGTQTYICNVNHKPSNTKVDKKVEPKSCDKTHTCPPCPAPEAAGGPSVFLFPPKPKDTLMISRTPEVTCVVVDVSHEDPEVKFNWYVDGVEVHNAKTKPREEQYASTYRVVSVLTVLHQDWLNGKEYKCKVSNKALPAPIEKTISKAKGQPREPQVYTLPPSRKELTKNQVSLTCLVKGFYPSDIAVEWESNGQPENNYKTTPPVLDSDGSFFLYSKLTVDKSRWQQGNVFSCSVMHEALHNRYTQKSLSLSP
light: QVQLVQSGAEVKKPGASVKVSCKASGYTFTDYEMHWIRKPPGKGLEWIGAINPKTGDTAYSQKFKGRVTLTADKSTSTAYMELSSLTSEDTAVYYCTRFYSYTYWGRGTLVTVSSASVAAPSVFIFPPSDEQLKSGTASVVCLLNNFYPREAKVQWKVDNALQSGNSQESVTEQDSKDSTYSLSSTLTLSKADYEKHKVYACEVTHQGLSSPVTKSFNRGEC
notes: also called no6-Gh-H homomer
Does B2 bind (protein A [2])?
Result: no binding

B3: J142-z72/L180-k (antibody, human IgG4 S228P, kappa)
heavy: QVQLVQSGSELKKPGASVKVSCKASGYTFTDNNMDWVRQAPGQGLEWMGDINTRSGGSIYNEEFQDRVTMTIDKSTGTAYMELSSLRSEDTAVYYCARRRSYGYYHDEWGEGTLVTVSSASTKGPSVFPLAPCSRSTSESTAALGCLVKDYFPEPVTVSWNSGALTSGVHTFPAVLQSSGLYSLSSVVTVPSSSLGTKTYTCNVDHKPSNTKVDKRVESKYGPPCPPCPAPEFLGGPSVFLFPPKPKDTLMISRTPEVTCVVVDVSQEDPEVQFNWYVDGVEVHNAKTKPREEQFNSTYRVVSVLTVLHQDWLNGKEYKCKVSNKGLPSSIEKTISKAKGQPREPQVYTLPPSQEEMTKNQVSLTCLVKGFYPSDIAVEWESNGQPENNYKTTPPVLDSDGSFFLYSRLTVDKSRWQEGNVFSCSVMHEALHNRFTQKSLSLSP
light: DIQMTQSPSSLSASVGDRVTITCKASRNIERNLAWYQQKPGQAPELLIYSASRKESGVPDRFSGSRYGTDFTLTISSLQPEDLATYYCQQYYSPPLTFGGGTKVEIKRTVAAPSVFIFPPSDEQLKSGTASVVCLLNNFYPREAKVQWKVDNALQSGNSQESVTEQDSKDSTYSLSSTLTLSKADYEKHKVYACEVTHQGLSSPVTKSFNRGEC
notes: Homomeric by-product in culture medium of Q153-G4d/J142-z72/L180-k; also called homomeric antibody J142-z72; homomeric antibody against FX
Does B3 bind (protein A [3])?
Result: no binding

B4: J300-z107/L210-k (antibody, human IgG4 S228P, kappa)
heavy: QVQLVQSGSELKKPGASVKVSCKASGYTFTDNNMDWVRQAPGQGLEWMGDINTRSGGSIYNEEFQDRVIMTVDKSTDTAYMELSSLRSEDTAVYHCARRKSYGYYLDEWGEGTLVTVSSASTKGPSVFPLAPCSRSTSESTAALGCLVKDYFPEPVTVSWNSGALTSGVHTFPAVLQSSGLYSLSSVVTVPSSSLGTQTYTCNVDHKPSNTKVDKRVESKYGPPCPPCPAPEFLGGPSVFLFPPKPKDTLMISRTPEVTCVVVDVSQEDPEVQFNWYVDGVEVHNAKTKPREEQYNSTYRVVSVLTVLHQDWLNGKEYKCKVSNKGLPSSIEKTISKAKGQPREPQVYTLPPSQEEMTKNQVSLTCLVKGFYPSDIAVEWESNGQPENNYKTTPPVLDSDGSFFLYSKLTVDKSRWQEGNVFSCSVMHEALHNRYTQESLSLSP
light: B3 light with L83I, Y92S
notes: also called homomeric antibody J300-z107; homomeric antibody against FX
Does B4 bind (protein A [4])?
Result: no binding

B5: J142-z73/L180-k (antibody, human IgG4 S228P, kappa)
heavy: B3 heavy with K438E
light: B3 light
notes: Homomeric by-product in culture medium of Q153-z7/J142-z73/L180-k; also called homomeric antibody J142-z73; homomeric antibody against FX
Does B5 bind (protein A [5])?
Result: no binding
